Laboratory results published in article PMC10564799.
Several values for one entry are separate records, joined by “and”; a condition that tells them apart may be missing. Equal entries are not always repeated.

Biological target: SFTSV glycoprotein Gc (SFTSV (Dabie bandavirus), strain JA1-2018)
Assay: cryo-EM structure

**Q.** SFTSV glycoprotein Gc (natural protein) was tested. Which stoichiometry N did it give?
**A.** 5 and 6
